These results are taken from US20220003782A1 (METAFORA BIOSYSTEMS, published 2022).

Test [1] addresses CAT1/SLC7A1 (UniProt P30825). The experiment in a line: flow cytometry, HEK293T cells with control siRNA siLUC (endogenous receptor), saturating ligand, Alexa488 anti-mouse IgG1. Background: A flow cytometer gives signals particle by particle.
Test [2] concerns the target CAT1/SLC7A1 (UniProt P30825). Description: flow cytometry, HEK293T cells with siSMVT A (endogenous receptor), saturating ligand, Alexa488 anti-mouse IgG1.
Test [3] addresses XPR1/SLC53A1. Description: flow cytometry, HEK293T cells with control siRNA siLUC (endogenous receptor), saturating ligand, Alexa488 anti-mouse IgG1.
Test [4] has as its target XPR1/SLC53A1. The experiment in a line: flow cytometry, HEK293T cells with siSMVT A (endogenous receptor), saturating ligand, Alexa488 anti-mouse IgG1.
The target of test [5] is GLUT1/SLC2A1 (glucose transporter type 1) (UniProt P11166). The experiment in a line: flow cytometry, HEK293T cells with control siRNA siLUC (endogenous receptor), saturating ligand, Alexa488 anti-mouse IgG1.
For test [6] the target is unchanged. The experiment in a line: flow cytometry, HEK293T cells with siSMVT A (endogenous receptor), saturating ligand, Alexa488 anti-mouse IgG1.
Test [7] addresses T1, sodium-dependent multivitamin transporter / solute carrier family 5 member 6 (SMVT/SLC5A6) (human, UniProt Q9Y289 1-635).
T1 construct: also called SLC5A6/SMVT
T1 sequence: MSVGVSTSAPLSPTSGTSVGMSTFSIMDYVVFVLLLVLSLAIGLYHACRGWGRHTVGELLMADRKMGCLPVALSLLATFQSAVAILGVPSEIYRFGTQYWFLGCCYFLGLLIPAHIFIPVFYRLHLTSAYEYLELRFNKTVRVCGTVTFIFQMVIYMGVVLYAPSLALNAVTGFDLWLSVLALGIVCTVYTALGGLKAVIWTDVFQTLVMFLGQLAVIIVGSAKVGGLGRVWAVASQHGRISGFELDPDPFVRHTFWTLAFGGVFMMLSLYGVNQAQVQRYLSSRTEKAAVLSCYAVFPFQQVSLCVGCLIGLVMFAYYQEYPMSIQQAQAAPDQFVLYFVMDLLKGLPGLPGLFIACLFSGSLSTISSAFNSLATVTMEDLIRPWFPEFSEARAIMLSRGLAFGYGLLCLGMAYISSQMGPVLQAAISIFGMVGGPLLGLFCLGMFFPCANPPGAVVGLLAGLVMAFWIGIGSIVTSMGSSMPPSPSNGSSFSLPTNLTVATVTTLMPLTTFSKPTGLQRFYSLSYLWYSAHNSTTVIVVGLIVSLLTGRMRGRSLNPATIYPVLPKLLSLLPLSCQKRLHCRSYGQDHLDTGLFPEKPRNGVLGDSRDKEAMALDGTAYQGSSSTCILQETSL
The experiment in a line: flow cytometry on HEK293T cells, siSMVT A against siLUC control.

Where only a bound is given, the exact number is not on record here.

GLUT1/SLC2A1 (glucose transporter type 1), sequence (P11166 whole entry): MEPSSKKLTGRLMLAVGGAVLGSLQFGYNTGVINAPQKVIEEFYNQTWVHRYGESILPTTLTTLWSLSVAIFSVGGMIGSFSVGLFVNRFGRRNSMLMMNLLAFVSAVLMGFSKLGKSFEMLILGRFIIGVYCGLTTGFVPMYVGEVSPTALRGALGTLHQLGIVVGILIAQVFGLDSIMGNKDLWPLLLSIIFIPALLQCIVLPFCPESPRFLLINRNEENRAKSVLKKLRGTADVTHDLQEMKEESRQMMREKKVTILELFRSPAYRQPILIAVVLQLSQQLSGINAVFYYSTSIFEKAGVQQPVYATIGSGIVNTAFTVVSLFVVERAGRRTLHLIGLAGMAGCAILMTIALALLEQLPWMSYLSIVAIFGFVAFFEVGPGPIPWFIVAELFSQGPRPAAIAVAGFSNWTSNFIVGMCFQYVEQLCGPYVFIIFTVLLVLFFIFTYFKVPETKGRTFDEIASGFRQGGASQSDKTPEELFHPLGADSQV
CAT1/SLC7A1, sequence (P30825 whole entry): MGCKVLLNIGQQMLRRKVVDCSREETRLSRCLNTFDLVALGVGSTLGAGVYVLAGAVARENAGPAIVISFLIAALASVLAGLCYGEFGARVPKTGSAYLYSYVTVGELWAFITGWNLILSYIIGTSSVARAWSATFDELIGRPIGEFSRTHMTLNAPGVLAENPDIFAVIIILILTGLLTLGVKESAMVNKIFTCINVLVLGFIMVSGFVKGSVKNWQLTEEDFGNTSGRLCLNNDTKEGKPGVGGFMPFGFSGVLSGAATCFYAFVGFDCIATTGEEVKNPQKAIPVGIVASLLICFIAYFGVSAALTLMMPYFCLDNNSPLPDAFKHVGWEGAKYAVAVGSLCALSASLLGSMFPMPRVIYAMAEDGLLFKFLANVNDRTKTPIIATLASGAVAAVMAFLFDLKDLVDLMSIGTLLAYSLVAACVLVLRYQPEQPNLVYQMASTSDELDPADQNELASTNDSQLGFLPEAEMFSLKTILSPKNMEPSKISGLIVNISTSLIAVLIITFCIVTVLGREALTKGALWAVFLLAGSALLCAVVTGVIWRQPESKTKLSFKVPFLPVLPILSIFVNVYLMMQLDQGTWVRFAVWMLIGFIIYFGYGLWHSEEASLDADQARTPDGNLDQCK
XPR1/SLC53A1, sequence (Q9UH99 whole entry): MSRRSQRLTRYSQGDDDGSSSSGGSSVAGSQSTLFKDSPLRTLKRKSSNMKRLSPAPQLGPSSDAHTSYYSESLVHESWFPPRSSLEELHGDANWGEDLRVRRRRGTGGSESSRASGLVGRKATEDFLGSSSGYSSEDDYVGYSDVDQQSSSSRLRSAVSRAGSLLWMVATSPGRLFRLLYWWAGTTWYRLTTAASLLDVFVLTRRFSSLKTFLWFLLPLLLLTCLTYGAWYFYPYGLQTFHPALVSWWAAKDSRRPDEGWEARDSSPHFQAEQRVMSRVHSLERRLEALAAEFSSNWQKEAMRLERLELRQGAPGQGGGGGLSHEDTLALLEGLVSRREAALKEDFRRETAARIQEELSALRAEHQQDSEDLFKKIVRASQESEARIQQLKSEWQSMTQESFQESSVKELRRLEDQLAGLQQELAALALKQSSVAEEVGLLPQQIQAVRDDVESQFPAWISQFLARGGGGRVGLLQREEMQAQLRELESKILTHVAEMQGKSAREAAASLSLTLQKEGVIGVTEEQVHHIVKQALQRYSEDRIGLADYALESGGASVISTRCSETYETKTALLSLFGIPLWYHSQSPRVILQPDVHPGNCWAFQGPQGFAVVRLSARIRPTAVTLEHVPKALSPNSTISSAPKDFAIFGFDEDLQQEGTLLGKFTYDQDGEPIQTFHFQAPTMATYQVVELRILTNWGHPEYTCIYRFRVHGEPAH

On to “RBD derived from the bovine leukemia virus (BLV), fusion protein with mFC (Fc fusion)”, for which the relative specific binding (delta of the geometric mean of the fluorescence intensity) with CAT1/SLC7A1 [1] and with CAT1/SLC7A1 [2] was 110 throughout. On to “RBD from a xenotropic murine retrovirus (XRBD), fusion protein with mFC (Fc fusion)”, for which the relative specific binding (delta of the geometric mean of the fluorescence intensity) with XPR1/SLC53A1 [3] amounted to 12.6; in the test with XPR1/SLC53A1 [4], 14.6. For “human T-cell leukemia virus type 2 (HTLV2)-RBD, fusion protein with mFC (Fc fusion)”, the relative specific binding (delta of the geometric mean of the fluorescence intensity) stood at 18.3 in test [5] and 21.3 in test [6].

B1: PERV-B RBD ligand fused to a mouse Fc fragment (SEQ ID NO: 13) (Fc fusion)
chain: KRLIDSSNPHRPLSLTWLIIDPDTGVTVNSTRGVAPRGTWWPELHFCLRLINPAVKSTPPNLVRSYGFYCCPGTEKEKYCGGSEESFCRRWSCVTSNDGDWKWPISLQDRVKFSFVNSGPGKYKVMKLYKDKSCSPSDLDYLKISFTEKGKQENIQKWINGMSWGIVFYKYGGGAGSTLTIRLRIEAGTEPPVAVGSVDVPRDCGCKPCICTVPEVSSVFIFPPKPKDVLTITLTPKVTCVVVDISKDDPEVQFSWFVDDVEVHTAQTQPREEQFNSTFRSVSELPIMHQDWLNGKEFKCRVNSAAFPAPIEKTISKTKGRPKAPQVYTIPPPKEQMAKDKVSLTCMITDFFPEDITVEWQWNGQPAENYKNTQPIMDTDGSYFVYSKLNVQKSNWEAGNTFTCSVLHEGLHNHHTEKSLSHSPGK
In the case of B1, the “fold drop of specific binding with anti-SMVT siRNA against siLUC” value in test [7] was more than 2 fold.
